Data set [1] concerns histone H4 (H4K5, H4K12). To be noted: no ref printed in the sentence; cited from earlier work.
The subject of data set [2] is histone H4 (H4K5, H4K12). The note with it: cited from earlier work; for enhancement of enzymatic activity of Hat1p: by facilitating H4 association with Hat1p; for enhancement of enzymatic activity of Hat1p / acetylation site specificity on H4 (literature): ref Parthun et al. 1996; for acetylation site specificity on H4 (literature): in vitro, complex purified from yeast extracts or recombinant yeast Hat1p.

Another data set relates to hat1Δ yeast. The experiment in a line: DNA damage sensitivity assay. The data set is classed as cell-based. The note with it: synthetic medium in the absence or presence of methyl methane sulfonate (MMS); H3K9,14R allele as sole H3; Supplemental Fig. S4.
Data set [3] relates to histone H4 in nucleosomes. The note with it: ref Kleff et al. 1995; Parthun et al. 1996; cited from earlier work.

Substitutions are numbered along the chain they refer to. “Also recorded” adds a separate entry of the source.

B1: recombinant human: recombinant human Hat1 (protein, UniProt O14929 2-419, looked up)
Histone acetyltransferase …: AGFGAMEKFLVEYKSAVEKKLAEYKCNTNTAIELKLVRFPEDLENDIRTFFPEYTHQLFGDDETAFGYKGLKILLYYIAGSLSTMFRVEYASKVDENFDCVEADDVEGKIRQIIPPGFCTNTNDFLSLLEKEVDFKPFGTLLHTYSVLSPTGGENFTFQIYKADMTCRGFREYHERLQTFLMWFIETASFIDVDDERWHYFLVFEKYNKDGATLFATVGYMTVYNYYVYPDKTRPRVSQMLILTPFQGQGHGAQLLETVHRYYTEFPTVLDITAEDPSKSYVKLRDFVLVKLCQDLPCFSREKLMQGFNEDMVIEAQQKFKINKQHARRVYEILRLLVTDMSDAEQYRSYRLDIKRRLISPYKKKQRDLAKMRKCLRPEELTNQMNQIEISMQHEQLEESFQELVEDYRRVIERLAQE
On to B1, for which the “acetylation of H4K5 and H4K12 (recombinant human Hat1, literature)” value in the data set with histone H4 (H4K5, H4K12) [1] is “can acetylate both H4K5 and H4K12”.

B2: RbAp46: human homolog of Hat2p, retinoblastoma-binding protein (protein, UniProt Q16576 2-425, looked up)
Histone-binding protein RBBP7: ASKEMFEDTVEERVINEEYKIWKKNTPFLYDLVMTHALQWPSLTVQWLPEVTKPEGKDYALHWLVLGTHTSDEQNHLVVARVHIPNDDAQFDASHCDSDKGEFGGFGSVTGKIECEIKINHEGEVNRARYMPQNPHIIATKTPSSDVLVFDYTKHPAKPDPSGECNPDLRLRGHQKEGYGLSWNSNLSGHLLSASDDHTVCLWDINAGPKEGKIVDAKAIFTGHSAVVEDVAWHLLHESLFGSVADDQKLMIWDTRSNTTSKPSHLVDAHTAEVNCLSFNPYSEFILATGSADKTVALWDLRNLKLKLHTFESHKDEIFQVHWSPHNETILASSGTDRRLNVWDLSKIGEEQSAEDAEDGPPELLFIHGGHTAKISDFSWNPNEPWVICSVSEDNIMQIWQMAENIYNDEESDVTTSELEGQGS
For B2, the “enhancement of enzymatic activity of Hat1p” value in the data set with histone H4 (H4K5, H4K12) [2] was “significantly enhanced the enzymatic activity of Hat1p”.

B3: Hat2p: WD40 repeat protein, binding partner of Hat1p (protein)
chain: MENQEKPLSVDEEYDLWKSNVPLMYDFVSETRLTWPSLTVQWLPTPVQELDGGFIKQELIIGTHTSGEEENYLKFAEINLPKEILSNEDPQEEAGEEYQSSLPAPRSNIRITAKYEHEEEITRARYMPQDPNIVATINGQGTVFLYSRSEGLQSTLKFHKDNGYALSFSTLVKGRLLSGSDDHTVALWEVGSGGDPTKPVRTWNDLHSDIINDNKWHNFNKDLFGTVSEDSLLKINDVRANNTTIDTVKCPQPFNTLAFSHHSSNLLAAAGMDSYVYLYDLRNMKEPLHHMSGHEDAVNNLEFSTHVDGVVVSSGSDNRLMMWDLKQIGAEQTPDDAEDGVPELIMVHAGHRSSVNDFDLNPQIPWLVASAEEENILQVWKCSHSLPIVGGPPKVNKDIIS
modifications: left off: 6xHis, N-terminal, kept
Turning to B3, the “enhancement of enzymatic activity of Hat1p” value with histone H4 (H4K5, H4K12) [2] was “significantly enhanced the enzymatic activity of Hat1p”.

B4: W197E (protein)
chain: MSANDFKPETWTSSANEALRVSIVGENAVQFSPLFTYPIYGDSEKIYGYKDLIIHLAFDSVTFKPYVNVKYSAKLGDDNIVDVEKKLLSFLPKDDVIVRDEAKWVDCFAEERKTHNLSDVFEKVSEYSLNGEEFVVYKSSLVDDFARRMHRRVQIFSLLFIEAANYIDETDPSWQIYWLLNKKTKELIGFVTTYKYEHYLGAKSFDEDIDKKFRAKISQFLIFPPYQNKGHGSCLYEAIIQSWLEDKSITEITVEDPNEAFDDLRDRNDIQRLRKLGYDAVFQKHSDLSDEFLESSRKSLKLEERQFNRLVEMLLLLNNS
modifications: left off: GST (from the vector pGEX6p-1), end not stated, cleaved
With B4, the “complementation of DNA damage sensitivity in hat1Δ yeast” value with hat1Δ yeast is recorded as “able to complement the DNA damage sensitivity in the hat1Δ yeast”.

B5: Hat1p/Hat2p complex: yeast histone acetyltransferase complex Hat1p/Hat2p (protein)
chain 1: B4 chain with E197W
chain 2: B3 chain
modifications: left off: 6xHis, N-terminal, state not stated
On to B5, for which the “acetylation site specificity on H4 (literature)” value in the data set with histone H4 (H4K5, H4K12) [2] is “specifically acetylated H4K12 residue; also recorded: highly specific for H4K12”.

B6: Hat1p: yeast Hat1p (1–320), type B histone acetyltransferase (protein)
chain: B4 chain with E197W
For B6, the “acetylation site specificity on H4 (literature)” value in the data set with histone H4 (H4K5, H4K12) [2] is “not only able to acetylate H4K12 but also exhibited low activity to H4K5; also recorded: acetylated both H4K5 and H4K12 in vitro”. For the same molecule, the “acetylation of H4K5 and H4K12 (recombinant yeast Hat1, literature)” value in the data set on histone H4 (H4K5, H4K12) [2] (recombinant yeast Hat1, no ref printed in the sentence) was “can acetylate both H4K5 and H4K12”. Moreover, the “acetylation of histone H4 in nucleosomes” value in data set [3] is reported as “cannot acetylate histone H4 in nucleosomes”.

Values taken from paper PMC4052767 (Genes & Development, 2014).
